Data set [1] addresses T1, mv4Int (369 aa integrase) (Lactobacillus delbrueckii bacteriophage …).
T1 chain: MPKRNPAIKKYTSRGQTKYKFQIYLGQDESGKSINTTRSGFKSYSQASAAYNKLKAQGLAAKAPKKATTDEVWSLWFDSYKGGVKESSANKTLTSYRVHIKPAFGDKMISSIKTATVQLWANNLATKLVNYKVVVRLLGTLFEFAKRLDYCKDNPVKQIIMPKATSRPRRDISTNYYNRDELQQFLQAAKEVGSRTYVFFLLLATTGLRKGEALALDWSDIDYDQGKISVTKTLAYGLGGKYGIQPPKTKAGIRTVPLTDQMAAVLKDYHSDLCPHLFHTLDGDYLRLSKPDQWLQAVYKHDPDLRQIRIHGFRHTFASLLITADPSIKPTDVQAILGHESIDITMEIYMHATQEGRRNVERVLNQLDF
The experiment in a line: EMSA; with arm DNA; complex III increases with mv4Int. To be noted: tags: expressed from pET15b; label: Cy3 on bottom strand. The protocol: However, if DNA containing the P′1-P′2 arm-binding sites was added to the reaction, the inhibition was removed and ^λInt was able to stably bind to the core-binding sites. To determine if ^mv4Int N-ter domain also exerts such inhibitory effect on its C-ter domain, they compared the ^mv4Int binding to a labelled 35-bp dsDNA containing the 21-bp core-attP region (Table 7C), in the presence or absence of unlabelled dsDNA containing the P′1 and P′2 arm-type binding sites (Table 7C). ^mv4Int binding to the COC′ sequence appeared quite unstable, as only faint bands and strong background smear can be observed (lane 3, FIG. 8A). Addition of a 28-bp dsDNA containing the P′12 sequences (Table 7C) greatly stimulates and stabilizes ^mv4Int binding to the core-attP sequence and led to the formation of three complexes (lane 4, FIG. 8A). […] To ensure that the stabilization effect was due to the binding of the N-ter domain of ^mv4Int to the arm-type binding site, the 28-pb P′12 dsDNA was replaced by a DNA duplex of 40 pb containing the P′1 and P′2 sites (Table 7C). A stabilization effect on the binding to the COC′ sequence was observed (lane 5, FIG. 8A), with the formation of two complexes (II* and III*) of mobility lower than the complexes observed with the 28-bp P′12 fragment. […]
In general terms: In EMSA bound probe runs differently from free probe, usually more slowly.

Data set [2] addresses T1, mv4Int (369 aa integrase). The data set is described as follows: EMSA; stable with P'12 arm DNA; unstable without; room temperature, polydIdC. To be noted: tags: expressed from pET15b; label: Cy3 on bottom strand. On the procedure:
5′ Cy3 end-labelled synthetic oligonucleotides (HPLC purified) were obtained from Eurofins. Labelled double strand DNA substrates were prepared by hybridization of complementary oligonucleotides (Table 7C) in 10 mM Tris pH 7.5, 50 mM NaCl by incubating the samples 5 min at 95° C. in a thermal cycler (Biorad) and decreasing the temperature of 1.5° C./min until it reaches 25° C. Binding reactions (20 μl) were performed with 0.87 pmol of labelled core- or arm-type DNA and 4.48 pmol of unlabelled arm- or core-type DNA in buffer containing 25 mM Tris pH 8, 75 mM NaCl, 10% glycerol, 0.5 mM DTT, 0.5 mM EDTA, 1 μg polydIdC (Sigma), 0.1 mg/ml BSA. The protein was added, the reaction performed at room temperature for 20 min and samples were loaded onto a non-denaturing 7.5% polyacrylamide gel (Mini-PROTEAN TGX, Biorad). The gels were run at 4° C., 75V for 2 h.
However, if DNA containing the P′1-P′2 arm-binding sites was added to the reaction, the inhibition was removed and ^λInt was able to stably bind to the core-binding sites. […]

B1: BOB' WT attB 35 bp (dsDNA)
DNA 1: GGTATTGTTCAAATCCTGTACTCTCCTTGCGTAAC
DNA 2: GTTACGCAAGGAGAGTACAGGATTTGAACAATACC
On to B1, for which the binding result in data set [1] is “binds”.

B2: COC' WT core-attP 35 bp (dsDNA)
DNA 1: GGTATTGGAAAGAACCTGTACTCTCCTTGCGTAAC
DNA 2: GTTACGCAAGGAGAGTACAGGTTCTTTCCAATACC
As to B2, in data set [2], the binding result is recorded as “binds”.

These data come from patent US20250354175, “ATTP MV4-DERIVED SITE-SPECIFIC RECOMBINATION AND ITS USE FOR INTEGRATION OF SEQUENCE OF INTEREST” (INSTITUT NATIONAL DE RECHERCHE POUR L'AGRICULTURE, …, published 2025).
